pIC50: −log10 of the molar value. Numbered stars: 1 amine (or outer) side, 2 acyl side, 3 side chain; on linkers, the order of the positions; unused ones are H or OH. Bridge positions count the residues as written; N and C are the ends. Square brackets hold non-standard residues; d marks the D form. Peptide text beside a SMILES is read from it. I, II: the chains in the order shown. * marks the point of attachment. Hexanoyl(6-succinimido-3yl) = O=C1CC([*:1])C(=O)N1CCCCCC(=O)[*:2]; Pteroyl = Nc1nc2ncc(CNc3ccc(C(=O)*)cc3)nc2c(=O)[nH]1; Dolaproine = CO[C@@H]([C@@H]1CCCN1)[C@@H](C)C(=O)O; Dil = CC[C@H](C)[C@H](NC)[C@@H](CC(=O)O)OC; γGlu = O=C(O)[C@H](CCC(=O)[*:2])N[*:1]; PABC = O=C(OCc1ccc(N[*:1])cc1)[*:2]; X1 = C[C@@H](N*)[C@@H](O)c1ccccc1; Cit = NC(=O)NCCC[C@H](N)C(=O)O; NMeV = CN[C@H](C(=O)O)C(C)C
Assays:
[1] = tested on: human breast cancer cell SK-BR-3; test: Cytotoxicity test of conjugate LDC10B; assay type: cell-based; conditions: SK-BR-3, Incubation Time 30 min
Experimental: (§1) Culture medium: RPMI 1640 Medium, no folic acid
(§2) 1) human nasopharyngeal cancer cell line KB, melanoma cell line A375, human lung cancer cell H1299, chronic myeloid leukemia cell line K562, human lung cancer cell H460, ovarian cancer cell SKOV3, breast cancer cell line HCC1954, human gastric cancer cell N87, and human breast cancer cell SK-BR-3 were incubated at 37° C., 5% CO2 in RPMI 1640 medium containing 10% fetal bovine serum, the cells were passaged every 2-3 days.
(§3) 2) human nasopharyngeal cancer cell line KB, melanoma cell line A375, human lung cancer cell H1299, chronic myeloid leukemia cell line K562, human lung cancer cell H460, ovarian cancer cell SKOV3, breast cancer cell line HCC1954, human gastric cancer cell N87, and human breast cancer cell SK-BR-3 were plated at 1×10^3 cells per well (96-well plate) and incubated for 8-12 h at 37° C., 5% CO2.
(§4) 3) Stock solutions of LDC conjugates or controls were prepared in PBS solution. 100 μL/well of serially diluted LDC conjugates or controls was added to the test cells in the plates and incubated for 15-30 min at 37° C., 5% CO2. The culture medium in the wells was then removed by aspiration and the test cells were incubated in fresh culture medium without conjugates (150 μL/well) for 2-3 days at 37° C., 5% CO2.
(§5) 4) CellTiter 96® Aqueous One Solution Cell Proliferation Assay (Promega) was added to each well to measure the amount of […] cells, and each plate was incubated in an incubator for 1 h at 37° C., 5% CO2.
(§6) 5) Each plate was read at 490 nm on a microplate reader, and the cell survivals were compared for test cells with or without the treatment of LDC conjugates. The LDC drug concentrations that are required for 50% cell death (IC50 values) were determined.

[2] = tested on: human gastric cancer cell N87; test: Cytotoxicity test of conjugate LDC10B; assay type: cell-based; conditions: N87, Incubation Time 30 min
Experimental: as §1, §2, §3, §4, §5, §6

melanoma cell line A375 [3] = test: Cytotoxicity test of conjugate LDC10B; assay type: cell-based; conditions: A375, Incubation Time 15 min
Experimental: as §1, §2, §3, §4, §5, §6

[4] = tested on: human lung cancer cell H1299; test: Cytotoxicity test of conjugate LDC10B; assay type: cell-based; conditions: H1299, Incubation Time 30 min
Experimental: as §1, §2, §3, §4, §5, §6

[5] = tested on: human lung cancer cell H460; test: Cytotoxicity test of conjugate LDC10B; assay type: cell-based; conditions: H460, Incubation Time 30 min
Experimental: as §1, §2, §3, §4, §5, §6

[6] = tested on: chronic myeloid leukemia cell line K562; test: Cytotoxicity test of conjugate LDC10B; assay type: cell-based; conditions: K562, Incubation Time 30 min
Experimental: as §1, §2, §3, §4, §5, §6

[7] = tested on: human nasopharyngeal cancer cell line KB; test: Cytotoxicity test of conjugate LDC10B; assay type: cell-based; conditions: Incubation Time 15 min
Experimental: as §1, §2, §3, §4, §5, §6

[8] = tested on: Transplanted HCC1954 tumor; test: Inhibitory assay of conjugates LDC10B and LDC10H against xenograf tumors; assay type: in vivo, nude mice; conditions: 10 mg/kg
Experimental: (§7) Animal: nude mice, aged 6-8 weeks, female
(§8) 1) human large cell lung cancer cell H460, human lung cancer cell A549, ovarian cancer cell SKOV3, and breast cancer cell line HCC1954 were incubated at 37° C., 5% CO2 in IMDM medium containing 10% fetal bovine serum, the cells were passaged every 2-3 days.
(§9) 2) generation of tumors: 7×10^6 tumor cells were injected subcutaneously into the back of nude mice, and the mice were grouped for treatment after the tumor sizes were as large as about 100-200 mm^3.
(§10) 3) treatment: 3 mice/group, treated with LDC10B, LDC10H, as well as controls MMAE and PBS with doses of 5 and 10 mg/kg every 5 days, three injections.
(§11) 4) the physical performance, body weights and tumor sizes of the animals were monitored. The number of animal death was recorded during the experiment.

Transplanted SKOV3 tumor = test: as above; assay type: in vivo, nude mice; conditions: 10 mg/kg
Experimental: as §7, §8, §9, §10, §11

Transplanted H460 tumor = test: as above; assay type: in vivo, nude mice
Experimental: as §7, §8, §9, §10, §11

melanoma cell line A375 [9] = test: Cytotoxicity test of conjugate LDC10BR; assay type: cell-based; conditions: A375, incubated 15-30 min, then 2-3 days
Experimental: as §1
(§12) 1) human nasopharyngeal cancer cell line KB, melanoma cell line A375, and human lung cancer cell H460 were incubated at 37° C., 5% CO2 in RPMI 1640 medium containing 10% fetal bovine serum, the cells were passaged every 2-3 days.
(§13) 2) human nasopharyngeal cancer cell line KB, melanoma cell line A375, and human lung cancer cell H460 were plated at 1×10^3 cells per well (96-well plate) and incubated for 8-12 h at 37° C., 5% CO2.
as §4, with “control” for “controls”, “the” for “the test”, “plate” for “plates”
(§14) 4) CellTiter 96® Aqueous One Solution Cell Proliferation Assay (Promega) was added to each well to measure the amount of […] cells, and the plate was incubated in an incubator for 1 h at 37° C., 5% CO2.
(§15) 5) the plate was read at 490 nm on a microplate reader, and the cell survivals were compared for cells with or without the treatment of LDC conjugates. The LDC drug concentrations that are required for 50% cell death (IC50 values) were determined.

[10] = tested on: human lung cancer cell H460; test: Cytotoxicity test of conjugate LDC10BR; assay type: cell-based; conditions: H460, incubated 15-30 min, then 2-3 days
Experimental: as §1, §12, §13
as §4, with “control” for “controls”, “the” for “the test”, “plate” for “plates”
as §14, §15

[11] = tested on: human nasopharyngeal cancer cell line KB; test: Cytotoxicity test of conjugate LDC10BR; assay type: cell-based; conditions: incubated 15-30 min, then 2-3 days
Experimental: as §1, §12, §13
as §4, with “control” for “controls”, “the” for “the test”, “plate” for “plates”
as §14, §15

[12] = Detection of conjugate concentrations in xenograf tumor models (serum, anti-MMAE ELISA); assay type: in vivo, nude mice; conditions: 10 mg/kg, peritoneal injection
Experimental: as §7
1) Human ovarian cancer cell SKOV3 and breast cancer cell line HCC1954 were incubated at 37° C., 5% CO2 in IMDM medium containing 10% fetal bovine serum, the cells were passaged every 2-3 days.
2) generation of tumors: 7×10^6 tumor cells were injected subcutaneously into the back of nude mice, and the mice were grouped for treatment after the tumor sizes were as large as about 100˜200 mm^3.
3) treatment: 3 mice/group, 10 mg/kg, peritoneal injection.
4) blood collection: the time for blood collection before treatment was set as 0, blood was collected at 20 min, 2 h, 4 h, and 24 h after treatment. The blood was centrifuged to collect serum, which was frozen and preserved.
5) Detection: the total amount of MMAE, LDC10B, LDC10H, as well as the MMAE metabolites of LDC10B and LDC10H in serum were detected by mice anti-MMAE ELISA kit.

[13] = tested on: ovarian cancer cell SKOV3; test: Cytotoxicity test of conjugate LDC10B; assay type: cell-based, human; conditions: SKOV3, Incubation Time 30 min
Experimental: as §1, §2, §3, §4, §5, §6

[14] = tested on: breast cancer cell line HCC1954; test: Cytotoxicity test of conjugate LDC10B; assay type: cell-based, human; conditions: HCC1954, Incubation Time 30 min
Experimental: as §1, §2, §3, §4, §5, §6

## CC[C@H](C)[C@@H]([C@@H](CC(=O)N1CCC[C@H]1[C@H](OC)[C@@H](C)C(=O)N[C@H](C)[C@@H](O)c1ccccc1)OC)N(C)C(=O)[C@@H](NC(=O)[C@H](C(C)C)N(C)C(=O)OCc1ccc(NC(=O)[C@H](CCCNC(N)=O)NC(=O)[C@@H](NC(=O)CCCCCN2C(=O)CC(SC[C@H](NC(=O)CC[C@H](NC(=O)c3ccc(NCc4cnc5[nH]c(N)nc(=O)c5n4)cc3)C(=O)O)C(=O)N[C@@H](CCCCN)C(=O)N[C@@H](CCC(=O)O)C(=O)N[C@@H](Cc3ccccc3)C(=O)N[C@@H](CC(C)C)C(=O)N[C@@H](Cc3c[nH]cn3)C(=O)N3CCC[C@H]3C(=O)N[C@@H](CO)C(=O)N[C@@H](CCCCN)C(=O)N[C@H](C(=O)N[C@@H](CC(=O)O)C(=O)N[C@@H](CC(C)C)C(=O)N3CCC[C@H]3C(=O)N[C@@H](CCCNC(=N)N)C(=O)O)C(C)C)C2=O)C(C)C)cc1)C(C)C (stereo partly shown) [LDC10B] (I: {Pteroyl-γGlu}-CKEFLHPSKVDLPR-OH / II: V[Cit][PABC][NMeV]V[Dil][Dolaproine]-X1; linker I:1-II:N via Hexanoyl(6-succinimido-3yl))
[1]
  pIC50: 7.80
[2]
  pIC50: 7.12
Melanoma cell line A375 [3]
  pIC50: 5.00
[4]
  pIC50: 7.23
[5]
  pIC50: 7.30
[6]
  pIC50: 7.83
[7]
  pIC50: 6.12
[8]; Before Injection
  Body weight of mice: 21.85 g
[8]; Five days after Injection 1
  Body weight of mice: 22.2 g
[8]; Five days after Injection 2
  Body weight of mice: 22.55 g
[8]; Five days after Injection 3
  Body weight of mice: 22.38 g
Transplanted SKOV3 tumor; Before Injection
  Body weight of mice: 22.96 g
Transplanted SKOV3 tumor; Five days after Injection 1
  Body weight of mice: 22.44 g
Transplanted SKOV3 tumor; Five days after Injection 2
  Body weight of mice: 23.23 g
Transplanted SKOV3 tumor; Five days after Injection 3
  Body weight of mice: 23.53 g
Transplanted H460 tumor; 5 mg/kg, Before Injection
  Body weight of mice: 23.13 g
Transplanted H460 tumor; 5 mg/kg, Five days after Injection 1
  Body weight of mice: 22.53 g
Transplanted H460 tumor; 5 mg/kg, Five days after Injection 2
  Body weight of mice: 22.26 g
Transplanted H460 tumor; 5 mg/kg, Five days after Injection 3
  Body weight of mice: 21.65 g
Transplanted H460 tumor; 10 mg/kg, Before Injection
  Body weight of mice: 22.51 g
Transplanted H460 tumor; 10 mg/kg, Five days after Injection 1
  Body weight of mice: 22.53 g
Transplanted H460 tumor; 10 mg/kg, Five days after Injection 2
  Body weight of mice: 23.37 g
Transplanted H460 tumor; 10 mg/kg, Five days after Injection 3
  Body weight of mice: 23 g
Melanoma cell line A375 [9]
  pIC50: 4.29
[10]
  pIC50: 5.17
[11]
  pIC50: 5.66
[12]; 20 min
  Concentration in serum: 10800 ng/mL
[12]; 2 h
  Concentration in serum: 5035 ng/mL
[12]; 4 h
  Concentration in serum: 530 ng/mL
[12]; 24 h
  Concentration in serum: 117.9 ng/mL
  detected in serum at 24 h after treatment (in words): Trace amount
[12]; Before Treatment
  Concentration in serum: 0 ng/mL
[13]
  pIC50: 7.80
[14]
  pIC50: 7.85

— patent US11571480B2, “Multi-ligand drug conjugates and uses thereof” (priority 2015, dated 2023)
